Source: publication PMC7360120

Target: HA-ELKS1αB

In the case of “GST-Rab6B Q72L (from UniProt P61294 1-208) (natural protein)”, the fraction of synapses with mito-Rab6-tagged mitochondria in neurons co-expressing mito-Rab6BQL and HA-ELKS1αB, compared to inactive Rab6B (mito-Rab6BTN) or HA-ELKS1^∆955-971 is reported as 2 fold.
